Reference: US20250333518A1 (ROCK BIOMEDICAL, published 2025)

T1: CD20 (UniProt P11836 1-297, limits assumed)
T1 construct: also called the antigen (of Rituximab and Obinutuzumab)
T1 sequence (looked up): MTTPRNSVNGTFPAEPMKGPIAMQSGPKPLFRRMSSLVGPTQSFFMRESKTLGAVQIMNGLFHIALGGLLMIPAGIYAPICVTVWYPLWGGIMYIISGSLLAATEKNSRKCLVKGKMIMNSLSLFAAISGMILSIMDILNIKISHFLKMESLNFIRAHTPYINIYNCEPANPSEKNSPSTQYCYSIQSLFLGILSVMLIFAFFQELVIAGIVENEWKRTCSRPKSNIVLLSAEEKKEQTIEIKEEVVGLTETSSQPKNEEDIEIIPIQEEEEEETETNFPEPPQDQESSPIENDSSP

B1: Rituximab (MabThera® or Rituxan®) population produced by the SAII A3 Fut8 KO cells according to the present disclosure (antibody, human IgG1, kappa, V domains shown)
VH: QVQLQQPGAELVKPGASVKMSCKASGYTFTSYNMHWVKQTPGRGLEWIGAIYPGNGDTSYNQKFKGKATLTADKSSSTAYMQLSSLTSEDSAVYYCARSTYYGGDWYFNVWGAGTTVTVSA
VL: QIVLSQSPAILSASPGEKVTMTCRASSSVSYIHWFQQKPGSSPKPWIYATSNLASGVPVRFSGSGSGTSYSLTISRVEAEDAATYYCQQWTSNPPTFGGGTKLEIKR
modifications: N-glycan: sialylated complex type glycans around 83.4% of the glycans, no core fucose
notes: Differs from the commercial product in the glycan profile only; also called Biobetter Rituximab; glycoengineered MabThera®
B2: Rituximab, commercially available product (MabThera®) (antibody, human IgG1, kappa, V domains shown)
VH: B1 VH
VL: B1 VL
notes: Bought product; also called Rituxan

Target: T1, CD20
Assay: ELISA, target binding

| Binder | EC50 [nM] |
| --- | --- |
| B1 | 0.77 |
| B2 | 0.544 |
